# Reference: article PMC11809415 (2025)
# B1: F-tractinopt–mCherry fusion [rat] / F-actin (rabbit skeletal muscle α-actin filaments) [rabbit] (parent complex)
# chain 1: APRRSVGELRLLFEARAASAA
# chain 2: not shown
# Variants of: B1
# Experiment: high-speed cosedimentation assay (SDS-PAGE densitometry); 2 µM F-tractin-mCherry; high-speed sedimentation, 120,000 g; point at the highest actin level (40 µM total, about 40 µM free F-actin); read off a plot
row,Variant,response
1,chain 1 F13A,~0.06 fraction of F-tractin bound

# Variants of: B1
# Experiment: high-speed cosedimentation assay (SDS-PAGE densitometry); 2 µM F-tractin-mCherry; high-speed sedimentation, 120,000 g; actin 0-40 µM
row,Variant,Kd
1,chain 1 R3A,23 µM

# Variants of: B1
# Experiment: high-speed cosedimentation assay (SDS-PAGE densitometry); 2 µM F-tractin-mCherry; high-speed sedimentation, 120,000 g; point at the highest actin level (40 µM total, about 39 µM free F-actin); read off a plot
row,Variant,response
1,chain 1 R3A,~0.44 fraction of F-tractin bound
